In one data set the target is GST. In words: cross-linking; controls GST and Thioredoxin; the cross-linker is not named in the legend.
Data set [1] deals with the molecule itself. In words: SEC; Superose 6 10/300 column; 500 uL of the eluted protein loaded; fractions analysed by SDS-PAGE and EMSA; sizes estimated against Bio-Rad standards.
Another data set deals with T1, GST:BEN (UniProt Q8SYK5 258-356).
T1 sequence: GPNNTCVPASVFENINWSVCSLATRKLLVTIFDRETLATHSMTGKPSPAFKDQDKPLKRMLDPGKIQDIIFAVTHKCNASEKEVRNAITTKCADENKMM
In words: EMSA; EMSA: 25 mM Tris-HCl pH 7.4, 100 mM KCl, 1 mM EDTA, 0.1 mM DTT, 0.1 mM PMSF, 0.03 mg/mL BSA, 10% glycerol, 0.5% Triton X-100, 0.25 mg/mL poly(dI-dC), 30 min room temperature. Conditions: protein: recombinant; tags: N-terminal GST; chain copies: 2; label: 5'-32P; blunt. In general terms: Mobility shift assays separate free from complexed probe on a gel.

A further data set deals with T2, GST:C-BEN (UniProt Q8SYK5 210-376).
T2 sequence: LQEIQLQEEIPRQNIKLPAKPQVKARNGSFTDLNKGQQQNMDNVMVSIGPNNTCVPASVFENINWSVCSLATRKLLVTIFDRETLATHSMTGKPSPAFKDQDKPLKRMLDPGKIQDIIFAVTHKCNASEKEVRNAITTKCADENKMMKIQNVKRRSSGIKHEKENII
The data set is described as above. Conditions: protein: recombinant; tags: N-terminal GST; chain copies: 2; label: 5'-32P; blunt.

The next data set deals with T3, GST:N-terminal 213 aa (UniProt Q8SYK5 1-213).
T3 sequence: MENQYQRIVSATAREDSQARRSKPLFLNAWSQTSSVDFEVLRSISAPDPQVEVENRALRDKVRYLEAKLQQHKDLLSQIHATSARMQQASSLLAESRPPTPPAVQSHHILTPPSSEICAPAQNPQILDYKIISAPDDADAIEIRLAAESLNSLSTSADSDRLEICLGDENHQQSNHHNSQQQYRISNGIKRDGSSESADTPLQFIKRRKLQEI
In words: EMSA; data not shown; EMSA: 25 mM Tris-HCl pH 7.4, 100 mM KCl, 1 mM EDTA, 0.1 mM DTT, 0.1 mM PMSF, 0.03 mg/mL BSA, 10% glycerol, 0.5% Triton X-100, 0.25 mg/mL poly(dI-dC), 30 min room temperature. As to conditions: protein: recombinant; tags: N-terminal GST; label: 5'-32P; blunt.

Data set [2] has as its target T4, HT:F-Insv (UniProt Q8SYK5 1-376).
T4 sequence: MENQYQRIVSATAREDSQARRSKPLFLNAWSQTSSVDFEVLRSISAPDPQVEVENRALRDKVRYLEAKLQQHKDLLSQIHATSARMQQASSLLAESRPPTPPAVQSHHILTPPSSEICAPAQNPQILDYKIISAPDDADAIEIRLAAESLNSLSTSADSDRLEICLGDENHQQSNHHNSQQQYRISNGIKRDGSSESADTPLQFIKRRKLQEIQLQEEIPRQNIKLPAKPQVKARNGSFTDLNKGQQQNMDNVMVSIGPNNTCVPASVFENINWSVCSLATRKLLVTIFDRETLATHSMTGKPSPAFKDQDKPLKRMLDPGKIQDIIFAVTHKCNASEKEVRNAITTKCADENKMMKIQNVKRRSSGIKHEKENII
In words: EMSA; 0.0005-0.5 uM protein; EMSA: 25 mM Tris-HCl pH 7.4, 100 mM KCl, 1 mM EDTA, 0.1 mM DTT, 0.1 mM PMSF, 0.03 mg/mL BSA, 10% glycerol, 0.5% Triton X-100, 0.25 mg/mL poly(dI-dC), 30 min room temperature. Conditions: protein: recombinant; tags: N-terminal His-Thioredoxin; label: 5'-32P; blunt.

The next data set deals with T5, GST:F-Insv (UniProt Q8SYK5 1-376).
T5 sequence: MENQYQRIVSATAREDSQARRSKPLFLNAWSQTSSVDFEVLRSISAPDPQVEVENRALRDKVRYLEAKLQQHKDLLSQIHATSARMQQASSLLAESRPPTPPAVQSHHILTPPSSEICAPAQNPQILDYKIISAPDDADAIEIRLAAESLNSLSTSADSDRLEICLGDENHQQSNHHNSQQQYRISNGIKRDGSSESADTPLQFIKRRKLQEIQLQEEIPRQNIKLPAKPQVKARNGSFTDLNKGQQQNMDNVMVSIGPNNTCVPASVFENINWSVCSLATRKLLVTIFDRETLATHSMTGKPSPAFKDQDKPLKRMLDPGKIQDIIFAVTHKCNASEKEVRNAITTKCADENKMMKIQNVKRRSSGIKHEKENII
In words: EMSA; closely spaced doublet; EMSA: 25 mM Tris-HCl pH 7.4, 100 mM KCl, 1 mM EDTA, 0.1 mM DTT, 0.1 mM PMSF, 0.03 mg/mL BSA, 10% glycerol, 0.5% Triton X-100, 0.25 mg/mL poly(dI-dC), 30 min room temperature. Conditions: protein: recombinant; tags: N-terminal GST; label: 5'-32P; blunt.

Data set [3] deals with T6, HS:C-BEN (UniProt Q8SYK5 210-376).
T6 sequence: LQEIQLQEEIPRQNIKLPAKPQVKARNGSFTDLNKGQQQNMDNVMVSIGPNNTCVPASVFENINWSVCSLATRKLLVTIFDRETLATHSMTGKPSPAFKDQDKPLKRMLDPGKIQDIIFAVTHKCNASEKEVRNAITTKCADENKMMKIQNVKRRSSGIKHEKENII
In words: EMSA; two shifts; slower one predominates at high protein; EMSA: 25 mM Tris-HCl pH 7.4, 100 mM KCl, 1 mM EDTA, 0.1 mM DTT, 0.1 mM PMSF, 0.03 mg/mL BSA, 10% glycerol, 0.5% Triton X-100, 0.25 mg/mL poly(dI-dC), 30 min room temperature. As to conditions: protein: recombinant; tags: N-terminal His-Sumo; chain copies: 2; label: 5'-32P; blunt.

The target of a further data set is T7, HS:F-Insv (UniProt Q8SYK5 1-376).
T7 sequence: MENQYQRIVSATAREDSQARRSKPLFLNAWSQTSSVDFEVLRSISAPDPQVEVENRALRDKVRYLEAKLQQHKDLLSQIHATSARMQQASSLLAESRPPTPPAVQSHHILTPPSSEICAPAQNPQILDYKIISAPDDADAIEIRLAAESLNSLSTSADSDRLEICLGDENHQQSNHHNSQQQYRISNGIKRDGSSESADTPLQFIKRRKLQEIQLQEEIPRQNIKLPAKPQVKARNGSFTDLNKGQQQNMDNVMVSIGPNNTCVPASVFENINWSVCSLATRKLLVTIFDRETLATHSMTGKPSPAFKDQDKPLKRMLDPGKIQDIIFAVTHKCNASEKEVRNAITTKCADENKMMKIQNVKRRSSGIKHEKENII
In words: EMSA; gel-filtration fractions ~420-120 kDa; early aggregate fractions give no shift; EMSA: 25 mM Tris-HCl pH 7.4, 100 mM KCl, 1 mM EDTA, 0.1 mM DTT, 0.1 mM PMSF, 0.03 mg/mL BSA, 10% glycerol, 0.5% Triton X-100, 0.25 mg/mL poly(dI-dC), 30 min room temperature. As to conditions: protein: recombinant; tags: N-terminal His-Sumo; label: 5'-32P; blunt.

Data set [4] has as its target T4, HT:F-Insv. In words: EMSA; multiple shifts; 0.0005-0.5 uM protein; EMSA: 25 mM Tris-HCl pH 7.4, 100 mM KCl, 1 mM EDTA, 0.1 mM DTT, 0.1 mM PMSF, 0.03 mg/mL BSA, 10% glycerol, 0.5% Triton X-100, 0.25 mg/mL poly(dI-dC), 30 min room temperature. Conditions: protein: recombinant; tags: N-terminal His-Thioredoxin; label: 5'-32P; blunt.
In data set [5] the target is T6, HS:C-BEN. In words: EMSA; multiple shifts, mainly tetramer/hexamer; EMSA: 25 mM Tris-HCl pH 7.4, 100 mM KCl, 1 mM EDTA, 0.1 mM DTT, 0.1 mM PMSF, 0.03 mg/mL BSA, 10% glycerol, 0.5% Triton X-100, 0.25 mg/mL poly(dI-dC), 30 min room temperature. Conditions: protein: recombinant; tags: N-terminal His-Sumo; chain copies: 2; label: 5'-32P; blunt.

Several values for one entry are separate records, joined by “and”; a condition that tells them apart may be missing. Identical values can stand only once.

As usually defined, the stoichiometry N is a count of units in the complex or per binding partner. For the molecule GST (natural protein), in the data set with GST, the stoichiometry N came to 2.

B1: His-Thioredoxin F-Insv (HT:F-Insv) (natural protein, Drosophila, UniProt Q8SYK5 1-376, looked up)
chain: MENQYQRIVSATAREDSQARRSKPLFLNAWSQTSSVDFEVLRSISAPDPQVEVENRALRDKVRYLEAKLQQHKDLLSQIHATSARMQQASSLLAESRPPTPPAVQSHHILTPPSSEICAPAQNPQILDYKIISAPDDADAIEIRLAAESLNSLSTSADSDRLEICLGDENHQQSNHHNSQQQYRISNGIKRDGSSESADTPLQFIKRRKLQEIQLQEEIPRQNIKLPAKPQVKARNGSFTDLNKGQQQNMDNVMVSIGPNNTCVPASVFENINWSVCSLATRKLLVTIFDRETLATHSMTGKPSPAFKDQDKPLKRMLDPGKIQDIIFAVTHKCNASEKEVRNAITTKCADENKMMKIQNVKRRSSGIKHEKENII
notes: Insensitive (Insv), Drosophila, full-length; also called HT:Insv; HT-Insv; source: E. coli, purified (Ni-NTA Agarose); not shown: His6, N-terminal, kept; Thioredoxin, N-terminal, kept
Turning to B1, the “stoichiometry N” value in data set [1] was 2 and 4.

B2: P3 (dsDNA)
DNA 1: CCACCGCAAAATCCAATTGGAAGAGAGCGACT
DNA 2: AGTCGCTCTCTTCCAATTGGATTTTGCGGTGG
B2: the binding result was “binds” with GST:BEN; “binds” with GST:C-BEN; “no binding” with GST:N-terminal 213 aa; “binds” in the data set with HT:F-Insv [2]; “binds” in the data set with GST:F-Insv; “binds” with HS:C-BEN [3]. Moreover, the binding result in the data set with HS:F-Insv was “binds”.

B3: P2 (P2#7) (dsDNA)
DNA 1: CTTGCGCAGGACTTTTGAGATTCTATTAAATTCTAACAAGATTTCAAGCTGTGTGGCGGGGGGAAGAGGAAGAGAGCGGAAAGTGCAGCGCCCAATAAGCAAATGGCAGCTGTCACG
DNA 2: CGTGACAGCTGCCATTTGCTTATTGGGCGCTGCACTTTCCGCTCTCTTCCTCTTCCCCCCGCCACACAGCTTGAAATCTTGTTAGAATTTAATAGAATCTCAAAAGTCCTGCGCAAG
For the molecule B3, the binding result with HT:F-Insv [4] and with HS:C-BEN [5] was “binds” each time.

Values taken from publication PMC6317261, “Functional dissection of the developmentally restricted BEN domain chromatin boundary factor Insensitive” (Epigenetics & Chromatin, 2019).
